Several values for one entry are separate records, joined by “and”; a condition that tells them apart may be missing. Equal entries are not always repeated.
How the values were obtained:
[1] = in vivo; cited from earlier work
[2] = set-up: species or system human; conditions: in vivo
Procedure: (§1) Study drug administration: a single injection of 10 MBq for ^212Pb-Compound 1 was administered for each participant. Administration was by slow bolus IV injection via a 3-way adapter coupled to a conventional isotonic saline solution. • The timepoint of injection of ^212Pb-Compound 1 was defined as Day 0, 0 hours. […] Full blood and plasma were measured separately to investigate ligand in vivo stability. […]
(§2) • Non-invasive gamma camera imaging with both planar gamma imaging (whole body scintigraphy) and SPECT/CT was performed at 2 timepoints following injection of ^212Pb-Compound 1: • 1-3 hours and 16-24 hours • The planar gamma camera imaging was acquired immediately before the SEPCT/CT imaging • Performed on a Siemens Symbia Intevo Bold hybrid scanner using a medium energy low penetration (MELP) or high energy (HE) collimator. • The same scanner was used for all acquisitions of all patients in the study. • Scanner room background radiation was measured 0.5 m from the SPECT/CT scanner table, over a time period of one minute, before the participant entered the scanner room. […]

[3] = set-up: species or system human; conditions: in vivo; remark: listed apart in the source
Procedure: as §1, §2

[4] = set-up: species or system human; conditions: in vivo; remark: listed apart in the source
Procedure: The sample size was three participants.
Study drug administration: a single injection of 10 MBq for ^212Pb-Compound 1 was administered for each participant. Administration was by slow bolus IV injection via a 3-way adapter coupled to a conventional isotonic saline solution. • The timepoint of injection of ^212Pb-Compound 1 was defined as Day 0, 0 hours. Imaging, whole-body probe and blood assessments of clearance were performed at the following timepoints: • Gamma camera imaging (both planar and SPECT/CT) was scheduled 1-3 hours and 16-24 hours post injection. • Clearance was assessed with blood sampling and whole-body probe measurements at the following timepoints: 15 min after dose (+/−15 min window), 1 h after dose (+1 h window), 4 h after dose (+2 h window), 16 h after dose (+8 h window). Full blood and plasma were measured separately to investigate ligand in vivo stability. Follow-up: Patients were followed-up for safety and tolerability for 28 days post-administration of ^212Pb-Compound 1, with visits on Day 14 and Day 28. Adverse events were reported per CTCAE v5 from time of informed consent until end of follow-up. Patients were followed-up for efficacy biomarkers (PSA, ALP) for 28 days post-administration of ^212Pb-Compound 1.
All 3 patients consented and administered ^212Pb-Compound 1 subsequently completed the planned safety follow up period (no withdrawals from the clinical trial).

[5] = Baseline F18-PSMA-PET/CT: normal tissue evaluation at screening; type: in vivo, human; conditions: individual participants
Procedure: Participants underwent a standard of care diagnostic ^18F-PSMA-PET/CT at baseline (i,e, within six weeks prior to administration of ^212Pb-Compound 1).
PSMA-PET/CT was conducted using the radiotracer ^18F-PSMA-1007: dose 2.5 MBq/kg (minimum 200 MBq, maximum 300 MBq) with PET acquisition performed approximately 120 minutes post-injection.
Each patient received a baseline PSMA-PET/CT evaluation utilizing an F18-PSMA-PET tracer during the screening period (i.e. prior to ^212Pb-Compound 1 administration).
The pattern of PSMA-PET CT tracer uptake in normal organs is within expectations in each case; with notable uptake in the salivary glands (SUVmax range 20.06-30.7), kidneys (SUVmax range 18.7-35.2) and liver (SUVmax range 14.5-25.5).

O=C([O-])CN1CCN(CC(=O)[O-])CCN(CC(=O)NCC2CCC(C(=O)N[C@@H](Cc3ccc4ccccc4c3)C(=O)NCCCC[C@H](NC(=O)N[C@@H](CCC(=O)O)C(=O)O)C(=O)O)CC2)CCN(CC(=O)[O-])CC1.[177Lu+3] (stereo partly shown) [^177Lu-PSMA-617, lutetium Lu 177 vipivotide tetraxetan]
Dry mouth (i.e., xerostomia), proportion of population [1]: 38.8%

NC(=O)CN1CCN(CC(N)=O)CCN(CC(N)=O)C(Cc2ccc(NC(=S)NC[C@H]3CC[C@H](C(=O)N[C@@H](Cc4ccc5ccccc5c4)C(=O)NCCCC[C@H](NC(=O)N[C@@H](CCC(=O)O)C(=O)O)C(=O)O)CC3)cc2)CN(CC(N)=O)CC1 (stereo partly shown) [^212Pb-Compound 1, metal not drawn]
Participants with ^212Pb-Compound 1 uptake by the liver [2]: one participant at the 1 hr time point | ^212Pb-Compound 1 uptake in retrocaval lymph node metastasis (most PSMA-avid lesion) [3]: uptake at the 1 hour time point for one lesion | Adverse reactions, SAEs, SUSARs or deaths [4]: No adverse reactions, serious adverse events (SAEs), suspected unexpected serious adverse events (SUSARs) or deaths were reported | CTCAE grade of the TEAE abdominal pain [4]: 2 | Differences or trends in hematology, biochemistry and urinalysis from baseline (incl. ALT, AST, bilirubin, albumin, egfr, creatinine) [4]: no clinically significant differences or trends | ECOG performance score at all visits evaluated [4]: 1 | ECOG performance status, change from baseline to end of study visit [4]: remained unchanged | Individual measurements of hematological and clinical chemistry parameters [4]: within their normal reference ranges | Investigator-assessed relationship of all TEAEs to ^212Pb-Compound 1 [4]: probably unrelated | Number (%) of Participants with TEAE: Abdominal pain [4]: 1 (33) | Number (%) of Participants with TEAE: Constipation [4]: 1 (33) | Number (%) of Participants with TEAE: Erythema [4]: 1 (33) | Number (%) of Participants with TEAE: General disorders and administration site conditions [4]: 1 (33) | Number (%) of Participants with TEAE: Injury, poisoning and procedural complications [4]: 1 (33) | Number (%) of Participants with TEAE: Localized oedema [4]: 1 (33) | Number (%) of Participants with TEAE: Skin and subcutaneous tissue disorders [4]: 1 (33) | Number (%) of Participants with TEAE: Tooth fracture [4]: 1 (33) | Number (%) of Participants with TEAE: Vomiting [4]: 1 (33) | Performance status (ECOG) [4]: 1 | Risk of xerostomia inferred from absent salivary gland uptake [4]: lower risk of xerostomia

O=C(O)CC[C@H](NC(=O)N[C@@H](CCCCNC(=O)[C@H](Cc1ccc2ccccc2c1)NC(=O)c1ccc(CNC(=O)[C@H](CCC(=O)O)NC(=O)[C@H](CCC(=O)O)NC(=O)c2ccc([18F])nc2)cc1)C(=O)O)C(=O)O [Compound F18-PSMA-PET]
SUV max, Bladder, including contents [5]: 8.3 and 2.8 and 3 | SUV max, Blood pool [5]: 1.2 and 0.8 and 1.3 | SUV max, Bone Marrow [5]: 1.8 and 1.3 and 1 | SUV max, Kidneys [5]: 35.2 and 26.8 and 18.7 | SUV max, Liver [5]: 14.5 and 25.5 and 14.8 | SUV max, Salivary gland [5]: 30.7 (2×) and 20.6 | SUV max, Spleen [5]: 16.2 and 7.2 and 15.3 | SUV mean, Bladder, including contents [5]: 6.2 and 2.3 (2×) | SUV mean, Blood pool [5]: 0.7 and 0.6 and 1.1 | SUV mean, Bone Marrow [5]: 1.3 and 0.9 and 0.7 | SUV mean, Kidneys [5]: 19.2 and 16.1 and 11.4 | SUV mean, Liver [5]: 11.3 and 21.8 and 12.5 | SUV mean, Salivary gland [5]: 18.5 and 13 and 19.8 | SUV mean, Spleen [5]: 12.6 and 6.1 and 13.7 | SUV max, Kidneys ([5]; listed as PSMA-PET CT tracer): 18.7 to 35.2 | SUV max, Liver ([5]; listed as PSMA-PET CT tracer): 14.5 to 25.5

— patent US20250281653A1, “METHODS FOR TREATING PROSTATE CANCER WITH RADIOPHARMACEUTICALS” (ARTBIO, Inc., priority 2024, published 2025)
